The text below walks through data of US20160053022A1 (PETER MACCALLUM CANCER INSTITUTE, published 2016).

One test concerns the target T1, hRYK.Fc (human, UniProt P34925 26-227).
T1 construct: extracellular domain; also called hRYK.Fc.FLAG; FLAG-tagged hRYK.Fc; not shown: Fc
The test can be described thus: ELISA: immobilized RWD1 probed with hRYK.Fc; the concentration on the axis is that of the RWD1 used for immobilization, the hRYK.Fc concentration of this graph is not given. How it is done:
Purified RWD1 antibody (20 μg) was used in immunoprecipitation experiments, to determine its ability to inhibit hRYK.Fc binding to Wnt3a.Myc5 or Wnt5a.Myc5 (10 μg and 20 μg, respectively; of transfected HEK293T cell lysate). Immunoprecipitations (IP) were performed to pull down hRYK.Fc (250 ng), then immunoblotted (IB) with an anti-Myc tag antibody to detect Wnt binding. Molecular mass standards are shown at the left in kDa. IgG, normal human IgG. (B) ELISA results of immobilized RWD1 antibody probed with hRYK.Fc protein. […] Results represent the mean±standard deviation of two to three independent experiments. IgG, normal human IgG; OD, optical density.
RYK binding was determined by ELISA as described previously (Davydova N, et al., 2011, J Mol Biol 407: 581-593), using bound RWD1 and probed with purified hRYK.Fc. All SPRi analyses were performed at 25° C. using HBST (10 mM HEPES, pH 7.4, 150 mM NaCl, 0.05% (v/v) Tween-20) as the running buffer. A ProteOn XPR36 SPRi biosensor, GLC sensor chips and coupling reagents (10 mM sodium acetate, pH 4.5; sulfo-N-hydroxysuccinimide (SNHS); 1-ethyl-3-(3-dimethylaminopropyl)-carbodiimide hydrochloride (EDC); and ethanolamine) were purchased from Bio-Rad Laboratories. All antibodies and ligands used for kinetic analysis were buffer exchanged with PBS. Immobilizations were performed at 30 μl/min on the GLC chip. […]
For orientation: ELISA stands for enzyme-linked immunosorbent assay.

For test [1], the target named is T2, hRYKWD.Fc (human, UniProt P34925 66-194, limits assumed).
T2 construct: domain: WIF domain; also called hRYKWD.Fc.FLAG; fusion protein containing the human RYK WIF domain; not shown: Fc region of human IgG1
T2 sequence (P34925 66-194 limits assumed): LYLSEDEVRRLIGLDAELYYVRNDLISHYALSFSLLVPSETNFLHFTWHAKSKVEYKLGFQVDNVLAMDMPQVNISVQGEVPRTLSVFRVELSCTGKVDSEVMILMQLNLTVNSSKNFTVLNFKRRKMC
The test can be described thus: SPRi (ProteOn XPR36, GLC chip), RWD1 immobilized, hRYKWD.Fc injected at 31.25-500 nM, 25 °C; calculated from ka and kd. How it is done:
(§1) RYK binding was determined by ELISA as described previously (Davydova N, et al., 2011, J Mol Biol 407: 581-593), using bound RWD1 and probed with purified hRYK.Fc. All SPRi analyses were performed at 25° C. using HBST (10 mM HEPES, pH 7.4, 150 mM NaCl, 0.05% (v/v) Tween-20) as the running buffer. A ProteOn XPR36 SPRi biosensor, GLC sensor chips and coupling reagents (10 mM sodium acetate, pH 4.5; sulfo-N-hydroxysuccinimide (SNHS); 1-ethyl-3-(3-dimethylaminopropyl)-carbodiimide hydrochloride (EDC); and ethanolamine) were purchased from Bio-Rad Laboratories. All antibodies and ligands used for kinetic analysis were buffer exchanged with PBS. Immobilizations were performed at 30 μl/min on the GLC chip. Prior to immobilization, chips were preconditioned with two sequential 10 sec pulses of 50 mM NaOH, 100 mM HCl and 0.5% SDS, followed by equilibration with HBST. For surface activation, 0.4 M EDC and 0.1 M SNHS were each diluted 50-fold in water and mixed together to give a final composition of 8 mM EDC in 2 mM SNHS. Separate vertical channels were activated with 150 μl of the EDC/SNHS mixture. IgGs for immobilization (RWD1 antibody and normal human IgG (R&D Systems; control)) were diluted to 50 μg/ml in 10 mM acetate, pH 4.5, and coupled (3×150 μl) along separate vertical channels followed by an injection of ethanolamine (150 μl) to block the reaction spots. […]

The target in test [2] is T2, hRYKWD.Fc. The experiment in a line: SPRi (ProteOn XPR36, GLC chip), RWD1 immobilized, hRYKWD.Fc injected at 31.25-500 nM, 25 °C, global 1:1 Langmuir fit with mass transfer. How it is done:
as §1

T1 sequence (P34925 26-227): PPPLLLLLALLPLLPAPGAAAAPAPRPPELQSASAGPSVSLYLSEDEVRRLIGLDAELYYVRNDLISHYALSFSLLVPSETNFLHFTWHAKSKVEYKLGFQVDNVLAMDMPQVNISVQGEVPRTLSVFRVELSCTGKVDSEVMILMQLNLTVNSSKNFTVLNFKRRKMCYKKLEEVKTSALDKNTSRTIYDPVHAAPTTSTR

B1: RWD1 (antibody, human IgG1, kappa, V domains shown)
VH: EVQLLESGGGLVQPGGSLRLSCAASGFTFSSYAMSWVRQAPGKGLEWVSLIHKAGHTTQYADSVKGRFTISRDNSKNTLYLQMNSLRAEDTAVYYCAKGYRHFDYWGQGTLVTVSS
VL: DIQMTQSPSSLSASVGDRVAITCRASQSISSYLNWYQQKPGKAPKLLIYRASNLQSGVPSRFSGSGSGTDFTLTISSLQPEDFATYYCQQAVGSPRTFGQGTKVEIKR
notes: Variable regions of scFv3 grafted onto a human IgG1 gamma heavy chain and human kappa light chain; fully human monoclonal antibody; also called RWD1 antibody
As for B1, the half-maximal effective concentration (EC50 (read off the curve)) (usually the concentration needed to bring the measured effect to its halfway point) in the test with hRYK.Fc is approximately 5 µg/mL. The Kd (in general, the concentration at which binding is half-saturated) with hRYKWD.Fc [1] was 4.2 nM. In addition, in the test with hRYKWD.Fc [2], the koff (as a rule, a measure of how fast the partners let go of each other) was 0.00037 s⁻¹ and the kon (as a rule, the second-order rate constant of association) was determined as 88000 M⁻¹ s⁻¹.
